Data reported in article PMC3737334 (RNA Biology, 2013).

T1: Csa5 (UniProt Q97Y90 1-150)
T1 sequence: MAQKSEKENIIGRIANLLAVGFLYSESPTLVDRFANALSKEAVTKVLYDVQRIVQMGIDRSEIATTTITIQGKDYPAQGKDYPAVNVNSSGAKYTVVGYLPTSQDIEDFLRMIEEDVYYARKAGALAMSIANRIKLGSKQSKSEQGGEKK

T2: Cas5 (Cas5/Cas7 core complex);Cas7 (Cas5/Cas7 core complex) (Sulfolobus solfataricus P2?;Sulfolobus …, UniProt Q97Y92;Q97Y91 1-240;1-321, |)
T2 sequence 1: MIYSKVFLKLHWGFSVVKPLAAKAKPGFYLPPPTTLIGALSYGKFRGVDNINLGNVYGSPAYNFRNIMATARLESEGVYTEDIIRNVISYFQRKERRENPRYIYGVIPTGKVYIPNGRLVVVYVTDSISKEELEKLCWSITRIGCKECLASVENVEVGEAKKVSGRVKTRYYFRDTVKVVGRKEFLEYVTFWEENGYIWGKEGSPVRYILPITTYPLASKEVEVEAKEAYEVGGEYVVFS
T2 sequence 2: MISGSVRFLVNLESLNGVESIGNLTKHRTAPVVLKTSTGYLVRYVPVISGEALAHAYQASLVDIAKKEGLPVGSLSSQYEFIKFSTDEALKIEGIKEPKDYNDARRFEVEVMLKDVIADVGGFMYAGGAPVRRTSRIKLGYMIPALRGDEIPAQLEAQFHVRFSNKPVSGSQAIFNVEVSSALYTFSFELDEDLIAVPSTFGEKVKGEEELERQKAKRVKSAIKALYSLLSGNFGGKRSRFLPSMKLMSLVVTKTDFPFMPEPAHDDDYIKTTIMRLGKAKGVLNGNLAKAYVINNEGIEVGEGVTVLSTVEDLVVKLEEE

B1: non-target ssDNA (ssDNA)
DNA: CCTCGAGGGATCCGTCCTAGCAAGCCGCTGCTACCGGAAGCTTCTGGACC
B2: Sso1398 (Csa5 paralog), selenomethionyl derivative (natural protein, S. solfataricus)
chain: MEASEPVAETISKRFWTLIKMLRFYVVLRRFGYIDPLIYSIDPKQIKDVLSEALREFVSYTSSSSSRSIVIYDDPKNPVTAQAPCLVVAKRDEIPQNFPSIYRYTIYKIDKSSEYCISPLVVNDKYATLITPNESVIKEFFDKLDSNIQYARVLASLAVGGE
modifications: selenomethionine in place of methionine
B3: Sso1398 wild type (Csa5 paralog) (natural protein, S. solfataricus)
chain: B2 chain
B4: crRNA (spacer 26, CRISPR locus A) (ssRNA)
RNA: AUUGAAAGACCAUACCCAACUUCUAACAACGUCGUUCUUAACAACGGAUUAAUCCCAAAA
B5: crRNA/protospacer heteroduplex (DNA:RNA)
RNA: B4 RNA
DNA: GATCCTCTCCACGTTGTTAAGAACGACGTTGTTAGAAGTTGGGTATGGTTGGCTG

Experiments:
Csa5 = molecular target: T1, Csa5; assay: fluorescence anisotropy
crystal structure = molecular target: the molecule itself; assay: crystal structure
SEC = molecular target: the molecule itself; assay: SEC
[1] = molecular target: T2, Cas5 (Cas5/Cas7 core complex);Cas7 …; assay: fluorescence anisotropy

| Binder | binding result (Csa5) | other results |
| --- | --- | --- |
| B1 | no binding |  |
| B2 |  | binding result (crystal structure): binds |
| B3 |  | binding result (SEC): binds |
| B4 | no binding | Kd [1]: 1380 ± 140 nM |
| B5 | no binding |  |
